Literature values as cited in PMC3433420.
Read-outs that look alike come from different tables or passages of the source.

Tests used:
Settings in all cases: cited from earlier work
SRC (Homo sapiens) = SRC (Homo sapiens) (UniProt P12931)
RASA1-N (Homo sapiens) [1] = molecular target: RASA1-N (Homo sapiens) (UniProt P20936)
RASA1-NC (Homo sapiens) [2] = molecular target: RASA1-NC (Homo sapiens) (UniProt P20936)
GRB10 (Homo sapiens) [3] = molecular target: GRB10 (Homo sapiens) (UniProt Q13322)
SH2B (Homo sapiens) = SH2B (Homo sapiens) (UniProt Q9NRF2)
RASA1-N (Homo sapiens) [4] = molecular target: RASA1-N (Homo sapiens) (UniProt P20936); remark: listed apart in the source
ABL2 (Homo sapiens) [5] = molecular target: ABL2 (Homo sapiens) (UniProt P42684)
ABL2 (Homo sapiens), sequence (P42684 168-268): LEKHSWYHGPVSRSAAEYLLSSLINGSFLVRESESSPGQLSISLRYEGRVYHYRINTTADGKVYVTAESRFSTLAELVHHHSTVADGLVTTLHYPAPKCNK

SH2D2A (Homo sapiens) = SH2D2A (Homo sapiens) (UniProt Q9NP31)
LCK (Homo sapiens) = LCK (Homo sapiens) (UniProt P06239)
PLCG2-NC (Homo sapiens) [6] = molecular target: PLCG2-NC (Homo sapiens) (UniProt P16885)
PLCG2-NC (Homo sapiens), sequence (P16885 527-740): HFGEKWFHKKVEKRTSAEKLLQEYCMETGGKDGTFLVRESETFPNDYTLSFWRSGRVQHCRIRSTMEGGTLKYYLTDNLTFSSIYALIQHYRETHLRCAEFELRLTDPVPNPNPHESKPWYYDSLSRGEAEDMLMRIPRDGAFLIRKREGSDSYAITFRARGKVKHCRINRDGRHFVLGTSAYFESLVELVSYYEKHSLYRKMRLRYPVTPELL

SYK-NC (Homo sapiens) [7] = molecular target: SYK-NC (Homo sapiens) (UniProt P43405)
YES1 (Homo sapiens) = YES1 (Homo sapiens) (UniProt P07947)
YES1 (Homo sapiens), sequence (P07947 153-260): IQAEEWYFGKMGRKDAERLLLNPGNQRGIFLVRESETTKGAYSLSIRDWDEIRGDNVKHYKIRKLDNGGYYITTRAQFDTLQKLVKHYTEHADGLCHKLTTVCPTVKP

SH2B3 (Homo sapiens) = SH2B3 (Homo sapiens) (UniProt Q9UQQ2)
SH2B3 (Homo sapiens), sequence (Q9UQQ2 359-467): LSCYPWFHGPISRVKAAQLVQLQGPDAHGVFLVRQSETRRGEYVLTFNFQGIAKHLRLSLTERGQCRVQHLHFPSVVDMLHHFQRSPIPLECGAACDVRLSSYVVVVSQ

PTPN6-NC (Homo sapiens) = PTPN6-NC (Homo sapiens) (UniProt P29350)
PTPN6-NC (Homo sapiens), sequence (P29350 1-218): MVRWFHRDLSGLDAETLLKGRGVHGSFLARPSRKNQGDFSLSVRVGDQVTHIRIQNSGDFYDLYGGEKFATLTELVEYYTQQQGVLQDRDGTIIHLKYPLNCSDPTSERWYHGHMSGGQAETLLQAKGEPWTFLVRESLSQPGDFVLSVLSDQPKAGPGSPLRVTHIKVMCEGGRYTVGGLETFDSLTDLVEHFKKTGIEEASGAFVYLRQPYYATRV

ZAP70-NC (Homo sapiens) = ZAP70-NC (Homo sapiens) (UniProt P43403)
ZAP70-NC (Homo sapiens), sequence (P43403 5-259): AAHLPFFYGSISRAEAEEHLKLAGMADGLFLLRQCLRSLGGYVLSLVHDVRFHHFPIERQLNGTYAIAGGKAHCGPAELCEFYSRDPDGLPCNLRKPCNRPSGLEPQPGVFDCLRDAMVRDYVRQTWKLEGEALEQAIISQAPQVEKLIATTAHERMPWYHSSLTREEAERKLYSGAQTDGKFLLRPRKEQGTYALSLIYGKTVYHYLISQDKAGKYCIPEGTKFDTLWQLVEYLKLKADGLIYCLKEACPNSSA

GRB7 (Homo sapiens) [8] = molecular target: GRB7 (Homo sapiens) (UniProt Q14451)
GRB7 (Homo sapiens), sequence (Q14451 426-532): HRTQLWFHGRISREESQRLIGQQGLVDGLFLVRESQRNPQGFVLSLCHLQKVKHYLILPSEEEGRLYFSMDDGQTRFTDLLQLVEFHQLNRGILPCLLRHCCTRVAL

TNS4 (Homo sapiens) = TNS4 (Homo sapiens) (UniProt Q8IZW8)
TNS4 (Homo sapiens), sequence (Q8IZW8 444-561): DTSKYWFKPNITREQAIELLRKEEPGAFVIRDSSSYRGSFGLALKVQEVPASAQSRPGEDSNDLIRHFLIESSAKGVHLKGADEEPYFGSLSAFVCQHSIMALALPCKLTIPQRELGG

SOCS1 (Homo sapiens) = SOCS1 (Homo sapiens) (UniProt O15524)
SOCS1 (Homo sapiens), sequence (O15524 74-179): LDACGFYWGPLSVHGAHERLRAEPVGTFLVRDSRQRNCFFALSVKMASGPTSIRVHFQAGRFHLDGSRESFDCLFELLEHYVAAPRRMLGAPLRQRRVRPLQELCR

ABL2 (Homo sapiens) [9] = molecular target: ABL2 (Homo sapiens) (UniProt P42684); remark: listed apart in the source
RASA1-NC (Homo sapiens) [10] = molecular target: RASA1-NC (Homo sapiens) (UniProt P20936); remark: listed apart in the source
PIK3R3-NC (Homo sapiens) [11] = molecular target: PIK3R3-NC (Homo sapiens) (UniProt Q92569)
SH2D3C (Homo sapiens) = SH2D3C (Homo sapiens) (UniProt Q8N5H7)
ITK (Homo sapiens) = ITK (Homo sapiens) (UniProt Q08881)
PLCG2-NC (Homo sapiens) [12] = molecular target: PLCG2-NC (Homo sapiens) (UniProt P16885); remark: listed apart in the source
SHC2-PTB (Homo sapiens) = SHC2-PTB (Homo sapiens) (UniProt P98077)
SHC2-PTB (Homo sapiens), sequence (P98077 482-582): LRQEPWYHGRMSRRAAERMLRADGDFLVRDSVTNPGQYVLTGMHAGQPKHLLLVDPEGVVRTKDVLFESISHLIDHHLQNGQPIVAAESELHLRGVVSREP

PIK3R1-NC (Homo sapiens) [13] = molecular target: PIK3R1-NC (Homo sapiens) (UniProt P27986)
PIK3R1-NC (Homo sapiens), sequence (P27986 328-723): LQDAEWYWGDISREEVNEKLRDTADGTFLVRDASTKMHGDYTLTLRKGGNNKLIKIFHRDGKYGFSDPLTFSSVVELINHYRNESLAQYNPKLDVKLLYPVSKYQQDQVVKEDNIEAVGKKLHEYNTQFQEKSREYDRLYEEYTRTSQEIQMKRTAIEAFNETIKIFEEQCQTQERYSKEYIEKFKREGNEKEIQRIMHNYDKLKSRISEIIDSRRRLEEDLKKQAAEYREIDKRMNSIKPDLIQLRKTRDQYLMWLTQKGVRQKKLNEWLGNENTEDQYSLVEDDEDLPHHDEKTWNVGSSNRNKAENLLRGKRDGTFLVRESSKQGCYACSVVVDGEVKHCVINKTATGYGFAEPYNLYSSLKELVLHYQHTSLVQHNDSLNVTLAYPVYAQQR

GRB10 (Homo sapiens) [14] = molecular target: GRB10 (Homo sapiens) (UniProt Q13322); remark: listed apart in the source
SHC1-PTB (Homo sapiens) = SHC1-PTB (Homo sapiens) (UniProt P29353)
SHC1-PTB (Homo sapiens), sequence (P29353 483-583): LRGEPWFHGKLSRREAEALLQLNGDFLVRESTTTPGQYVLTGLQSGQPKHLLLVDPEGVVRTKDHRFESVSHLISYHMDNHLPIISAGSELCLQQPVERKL

SOCS2 (Homo sapiens) = SOCS2 (Homo sapiens) (UniProt O14508)
SOCS2 (Homo sapiens), sequence (O14508 43-161): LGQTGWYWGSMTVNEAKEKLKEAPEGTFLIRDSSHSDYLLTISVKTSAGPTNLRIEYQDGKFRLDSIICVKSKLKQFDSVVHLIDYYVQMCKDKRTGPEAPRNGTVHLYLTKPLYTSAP

FES (Homo sapiens) = FES (Homo sapiens) (UniProt P07332)
BLK (Homo sapiens) = BLK (Homo sapiens) (UniProt P51451)
BLK (Homo sapiens), sequence (P51451 119-225): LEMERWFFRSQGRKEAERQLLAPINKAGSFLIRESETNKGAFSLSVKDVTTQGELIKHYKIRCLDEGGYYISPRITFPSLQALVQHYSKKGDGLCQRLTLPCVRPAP

SLA (Homo sapiens) [15] = molecular target: SLA (Homo sapiens) (UniProt Q13239)
SLA (Homo sapiens), sequence (Q13239 79-180): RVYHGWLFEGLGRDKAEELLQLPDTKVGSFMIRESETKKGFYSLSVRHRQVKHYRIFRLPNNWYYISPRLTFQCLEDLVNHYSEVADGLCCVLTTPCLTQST

TENC1 (Homo sapiens) [16] = molecular target: TENC1 (Homo sapiens) (UniProt Q63HR2)
TENC1 (Homo sapiens), sequence (Q63HR2 1135-1252): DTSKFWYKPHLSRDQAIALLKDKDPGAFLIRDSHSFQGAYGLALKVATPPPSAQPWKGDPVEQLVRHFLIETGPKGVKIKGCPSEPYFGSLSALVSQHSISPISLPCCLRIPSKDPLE

TENC1 (Homo sapiens) [17] = molecular target: TENC1 (Homo sapiens) (UniProt Q63HR2); remark: listed apart in the source
PIK3R2-N (Homo sapiens) [18] = molecular target: PIK3R2-N (Homo sapiens) (UniProt O00459)
PIK3R2-N (Homo sapiens), sequence (O00459 325-721): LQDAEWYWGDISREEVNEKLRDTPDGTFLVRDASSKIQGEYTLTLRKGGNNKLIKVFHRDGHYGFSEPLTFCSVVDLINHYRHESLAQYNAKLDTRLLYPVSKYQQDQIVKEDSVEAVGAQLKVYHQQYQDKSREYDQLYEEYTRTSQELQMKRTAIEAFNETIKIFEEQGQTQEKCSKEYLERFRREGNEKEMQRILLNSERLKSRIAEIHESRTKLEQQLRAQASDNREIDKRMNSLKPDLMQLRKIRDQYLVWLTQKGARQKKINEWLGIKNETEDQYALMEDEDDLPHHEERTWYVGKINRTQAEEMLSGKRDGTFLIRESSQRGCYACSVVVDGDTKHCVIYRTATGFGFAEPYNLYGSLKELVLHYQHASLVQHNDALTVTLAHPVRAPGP

PIK3R3-C (Homo sapiens) = PIK3R3-C (Homo sapiens) (UniProt Q92569)
PIK3R3-N (Homo sapiens) [19] = molecular target: PIK3R3-N (Homo sapiens) (UniProt Q92569)
ABL2 (Homo sapiens) [20] = molecular target: ABL2 (Homo sapiens) (UniProt P42684); remark: listed apart in the source
RASA1-N (Homo sapiens) [21] = molecular target: RASA1-N (Homo sapiens) (UniProt P20936); remark: listed apart in the source
PIK3R3-N (Homo sapiens) [22] = molecular target: PIK3R3-N (Homo sapiens) (UniProt Q92569); remark: listed apart in the source
PIK3R3-NC (Homo sapiens) [23] = molecular target: PIK3R3-NC (Homo sapiens) (UniProt Q92569); remark: listed apart in the source
PIK3R1-NC (Homo sapiens) [24] = molecular target: PIK3R1-NC (Homo sapiens) (UniProt P27986); remark: listed apart in the source
PIK3R3-NC (Homo sapiens) [25] = molecular target: PIK3R3-NC (Homo sapiens) (UniProt Q92569); remark: listed apart in the source
PIK3R1-N (Homo sapiens) = PIK3R1-N (Homo sapiens) (UniProt P27986)
PIK3R2-N (Homo sapiens) [26] = molecular target: PIK3R2-N (Homo sapiens) (UniProt O00459); remark: listed apart in the source
PIK3R2-NC (Homo sapiens) = PIK3R2-NC (Homo sapiens) (UniProt O00459)
SLA (Homo sapiens) [27] = molecular target: SLA (Homo sapiens) (UniProt Q13239); remark: listed apart in the source
PIK3R1-NC (Homo sapiens) [28] = molecular target: PIK3R1-NC (Homo sapiens) (UniProt P27986); remark: listed apart in the source
GRB7 (Homo sapiens) [29] = molecular target: GRB7 (Homo sapiens) (UniProt Q14451); remark: listed apart in the source
SYK-NC (Homo sapiens) [30] = molecular target: SYK-NC (Homo sapiens) (UniProt P43405); remark: listed apart in the source

RASA1-N (Homo sapiens), sequence (P20936 176-446): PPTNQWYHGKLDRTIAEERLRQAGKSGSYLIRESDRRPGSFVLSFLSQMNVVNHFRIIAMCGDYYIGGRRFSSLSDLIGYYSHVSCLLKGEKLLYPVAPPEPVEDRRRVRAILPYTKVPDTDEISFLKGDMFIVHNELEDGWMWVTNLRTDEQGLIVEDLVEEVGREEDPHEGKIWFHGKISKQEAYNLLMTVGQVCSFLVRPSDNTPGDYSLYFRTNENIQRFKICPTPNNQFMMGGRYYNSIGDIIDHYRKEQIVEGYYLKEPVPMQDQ
GRB10 (Homo sapiens), sequence (Q13322 488-579): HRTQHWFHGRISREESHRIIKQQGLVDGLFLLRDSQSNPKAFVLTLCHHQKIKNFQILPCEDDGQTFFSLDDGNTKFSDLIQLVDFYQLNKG
RASA1-NC (Homo sapiens), sequence (P20936 176-446): as the sequence (P20936 176-446) above

**Q.** Which apparent Kd (screen) (SRC (Homo sapiens)) does the source give for …pYRALMDEEd here?
**A.** 1.14 µM

**Q.** What about the apparent Kd (screen) (RASA1-N (Homo sapiens) [1]) of the same substance?
**A.** 0.709 µM

**Q.** And the apparent Kd (screen) (RASA1-NC (Homo sapiens) [2])?
**A.** 1.38 µM

**Q.** What about the apparent Kd (screen) (GRB10 (Homo sapiens) [3]) of the same substance?
**A.** 2 µM

**Q.** And the apparent Kd (screen) (SH2B (Homo sapiens))?
**A.** 2 µM

**Q.** And the apparent Kd (screen) (RASA1-N (Homo sapiens) [4])?
**A.** 1.06 µM

**Q.** What about the apparent Kd (screen) (ABL2 (Homo sapiens) [5]) of the same substance?
**A.** 1.5 µM

**Q.** What about the apparent Kd (screen) (SH2D2A (Homo sapiens)) of the same substance?
**A.** 2 µM

**Q.** What about the apparent Kd (screen) (LCK (Homo sapiens)) of the same substance?
**A.** 2 µM

**Q.** What about the apparent Kd (screen) (PLCG2-NC (Homo sapiens) [6]) of the same substance?
**A.** 1.5 µM

**Q.** And the apparent Kd (screen) (SYK-NC (Homo sapiens) [7])?
**A.** 0.905 µM

**Q.** What about the apparent Kd (screen) (YES1 (Homo sapiens)) of the same substance?
**A.** 0.724 µM

**Q.** And the apparent Kd (screen) (SH2B3 (Homo sapiens))?
**A.** 1.36 µM

**Q.** And the apparent Kd (screen) (PTPN6-NC (Homo sapiens))?
**A.** 2 µM

**Q.** And the apparent Kd (screen) (ZAP70-NC (Homo sapiens))?
**A.** 1.65 µM

**Q.** And the apparent Kd (screen) (GRB7 (Homo sapiens) [8])?
**A.** 0.755 µM

**Q.** And the apparent Kd (screen) (TNS4 (Homo sapiens))?
**A.** 2 µM

**Q.** And the apparent Kd (screen) (SOCS1 (Homo sapiens))?
**A.** 2 µM

**Q.** What about the apparent Kd (screen) (ABL2 (Homo sapiens) [9]) of the same substance?
**A.** 2 µM

**Q.** And the apparent Kd (screen) (RASA1-NC (Homo sapiens) [10])?
**A.** 1.65 µM

**Q.** And the apparent Kd (screen) (PIK3R3-NC (Homo sapiens) [11])?
**A.** 0.968 µM

**Q.** And the apparent Kd (screen) (SH2D3C (Homo sapiens))?
**A.** 2 µM

**Q.** What about the apparent Kd (screen) (ITK (Homo sapiens)) of the same substance?
**A.** 0.277 µM

**Q.** And the apparent Kd (screen) (PLCG2-NC (Homo sapiens) [12])?
**A.** 1.39 µM

**Q.** What about the apparent Kd (screen) (SHC2-PTB (Homo sapiens)) of the same substance?
**A.** 0.978 µM

**Q.** What about the apparent Kd (screen) (PIK3R1-NC (Homo sapiens) [13]) of the same substance?
**A.** 0.239 µM

**Q.** And the apparent Kd (screen) (GRB10 (Homo sapiens) [14])?
**A.** 1.69 µM

**Q.** What about the apparent Kd (screen) (SHC1-PTB (Homo sapiens)) of the same substance?
**A.** 1.15 µM

**Q.** What about the apparent Kd (screen) (SOCS2 (Homo sapiens)) of the same substance?
**A.** 2 µM

**Q.** And the apparent Kd (screen) (FES (Homo sapiens))?
**A.** 1.23 µM

**Q.** What about the apparent Kd (screen) (BLK (Homo sapiens)) of the same substance?
**A.** 0.191 µM

**Q.** And the apparent Kd (screen) (SLA (Homo sapiens) [15])?
**A.** 1.6 µM

**Q.** Which results are given for …pYEYMNRQR?
**A.** apparent Kd (screen) (TENC1 (Homo sapiens) [16]): 1.62 µM; apparent Kd (screen) (TENC1 (Homo sapiens) [17]): 1.71 µM; apparent Kd (screen) (PIK3R2-N (Homo sapiens) [18]): 0.199 µM; apparent Kd (screen) (PIK3R3-C (Homo sapiens)): 0.13 µM; apparent Kd (screen) (PIK3R3-N (Homo sapiens) [19]): 0.171 µM; apparent Kd (screen) (ABL2 (Homo sapiens) [20]): 0.357 µM; apparent Kd (screen) (RASA1-N (Homo sapiens) [21]): 1.04 µM; apparent Kd (screen) (PIK3R3-N (Homo sapiens) [22]): 0.157 µM; apparent Kd (screen) (PIK3R3-NC (Homo sapiens) [23]): 0.151 µM; apparent Kd (screen) (PIK3R1-NC (Homo sapiens) [24]): 0.043 µM; apparent Kd (screen) (PIK3R3-NC (Homo sapiens) [25]): 0.122 µM; apparent Kd (screen) (PIK3R1-N (Homo sapiens)): 0.296 µM; apparent Kd (screen) (PIK3R2-N (Homo sapiens) [26]): 0.151 µM; apparent Kd (screen) (PIK3R2-NC (Homo sapiens)): 0.099 µM; apparent Kd (screen) (SLA (Homo sapiens) [27]): 2 µM; apparent Kd (screen) (PIK3R1-NC (Homo sapiens) [28]): 0.033 µM; apparent Kd (screen) (GRB7 (Homo sapiens) [29]): 0.999 µM; apparent Kd (screen) (SYK-NC (Homo sapiens) [30]): 1.3 µM
